Values belong to the molecule of their own block, whether it stands above or below them. Where no end group is shown, it is not given here. [ ]: non-standard residue; d: D form. Pip = O=C(O)[C@@H]1CCCCN1; AEEA = NCCOCCOCC(=O)O
Key:
[1] = target: T1, antiplasmin-cleaving enzyme (APCE) (human, UniProt Q12884 24-760, Natural plasma glycoprotein; glycans are not carried by the letters. The active enzyme is known as a homodimer; one chain is given.); experiment: inhibition of APCE activity, AMC fluorogenic substrate, competitive fit
T1 construct: The range 24-760 is derived from the statement that APCE lacks the first 23 residues of FAP; also called α2-antiplasmin cleaving enzyme; APCE/FAP
T1 sequence: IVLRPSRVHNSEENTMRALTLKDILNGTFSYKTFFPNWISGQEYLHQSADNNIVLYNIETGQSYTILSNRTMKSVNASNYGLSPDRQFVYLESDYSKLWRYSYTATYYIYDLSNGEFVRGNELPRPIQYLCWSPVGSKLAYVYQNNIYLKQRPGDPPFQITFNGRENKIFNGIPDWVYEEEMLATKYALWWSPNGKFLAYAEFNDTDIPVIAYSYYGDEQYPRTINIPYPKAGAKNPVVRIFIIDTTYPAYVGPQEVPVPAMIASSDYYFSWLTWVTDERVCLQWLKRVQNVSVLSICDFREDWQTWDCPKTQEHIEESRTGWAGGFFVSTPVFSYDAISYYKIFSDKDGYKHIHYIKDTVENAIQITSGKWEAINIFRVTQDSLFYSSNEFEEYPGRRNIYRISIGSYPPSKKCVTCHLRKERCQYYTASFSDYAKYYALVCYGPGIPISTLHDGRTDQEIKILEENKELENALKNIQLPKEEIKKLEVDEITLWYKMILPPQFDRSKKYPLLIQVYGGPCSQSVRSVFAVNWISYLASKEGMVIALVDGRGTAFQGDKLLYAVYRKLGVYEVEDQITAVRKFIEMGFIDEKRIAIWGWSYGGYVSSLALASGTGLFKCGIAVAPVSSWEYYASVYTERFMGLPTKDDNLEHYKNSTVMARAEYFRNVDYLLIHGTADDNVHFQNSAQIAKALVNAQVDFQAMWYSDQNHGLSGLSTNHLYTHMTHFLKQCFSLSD
Method: Enzyme assays. APCE or DDPIV was incubated in 25 mM sodium phosphate buffer, pH 7.5, containing 1.0 mM EDTA and 4% methanol in a total volume of 200 μl for 20 min at 22° C., using fluorescent substrates […]-AMC (SEQ ID NO.:4) (12.5-100 μM); […]-AMC (SEQ ID NO.:5) (12.5-100 μM); Z-Gly-Pro-AMC (25-200 μM); or GP-AMC (62.5-1000 μM). […] Fluorescence was monitored with time at excitation and emission wavelengths of 360 and 460 nm using a black-sided, 96-well plate in a BIO-TEK FL600 fluorescence plate reader. For standard curves, dilutions of AMC (7-amino-4-methylcoumarin) were prepared in the same assay buffer and corresponding fluorescence was measured. The substrates in five different concentrations were mixed with four different concentrations of inhibitors around the expected Ki values; the enzyme was added and enzymatically released AMC fluorescence was recorded. Competitive inhibition was established by Lineweaver-Burk plot. Therefore, enzyme kinetic parameters were computed by fitting data to the following equation, employing the program PRISM, GraphPad: […]

[2] = target: T1, antiplasmin-cleaving enzyme (APCE); experiment: inhibition of APCE activity, AMC fluorogenic substrate
[3] = target: dipeptidyl peptidase IV (DPPIV); experiment: ratio of Ki for DPPIV to Ki for APCE/FAP
Chain of dipeptidyl peptidase IV (DPPIV) (P27487 29-766): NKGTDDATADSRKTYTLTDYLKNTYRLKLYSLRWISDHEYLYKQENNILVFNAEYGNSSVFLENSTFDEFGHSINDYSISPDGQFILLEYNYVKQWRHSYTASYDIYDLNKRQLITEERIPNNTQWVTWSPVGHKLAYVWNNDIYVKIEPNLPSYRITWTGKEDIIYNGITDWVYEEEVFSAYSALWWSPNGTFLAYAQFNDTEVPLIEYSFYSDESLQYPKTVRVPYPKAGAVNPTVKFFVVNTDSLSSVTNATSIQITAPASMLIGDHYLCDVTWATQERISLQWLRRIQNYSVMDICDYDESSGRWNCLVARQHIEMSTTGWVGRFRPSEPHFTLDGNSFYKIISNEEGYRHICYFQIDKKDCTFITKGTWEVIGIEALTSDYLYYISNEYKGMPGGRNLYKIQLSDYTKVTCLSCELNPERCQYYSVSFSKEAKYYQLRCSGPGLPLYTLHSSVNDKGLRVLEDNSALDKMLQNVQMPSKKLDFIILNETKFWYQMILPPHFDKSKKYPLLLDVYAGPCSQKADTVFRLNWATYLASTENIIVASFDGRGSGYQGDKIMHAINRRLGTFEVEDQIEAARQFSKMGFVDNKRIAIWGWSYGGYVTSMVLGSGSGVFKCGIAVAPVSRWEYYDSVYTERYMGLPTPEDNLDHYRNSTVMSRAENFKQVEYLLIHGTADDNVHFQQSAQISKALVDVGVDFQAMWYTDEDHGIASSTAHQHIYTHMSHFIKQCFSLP

[4] = target: dipeptidyl peptidase IV (DPPIV); experiment: inhibition of DPPIV activity, AMC fluorogenic substrate

Molecule: FR-peg-G-pyrrolidide (peptide)
Ki [1]: 67700 nM

Molecule: Ac-Gly-L-boroPro (peptide)
Ki [2]: 20.7 nM
Selectivity, Ki (DPPIV)/Ki (APCE/FAP) [3]: 15.2
Ki [4]: 314 nM

Molecule: Ac-Arg-peg-Gly-L-boroPro (peptide)
Ki [2]: 1.8 nM
Selectivity, Ki (DPPIV)/Ki (APCE/FAP) [3]: 244
Ki [4]: 440 nM

Molecule: FR-peg-G-piperidide (peptide)
Ki [1]: 264000 nM

Molecule: Ac-Arg-peg-D-Ala-DL(75:25%)-boroPro (peptide)
Ki [2]: 18.3 nM

Molecule: Ac-Arg-Gly-Gly-L-boroPro (peptide)
Ki [2]: 17.2 nM
Selectivity, Ki (DPPIV)/Ki (APCE/FAP) [3]: 18.7
Ki [4]: 322 nM

Molecule: Ac-Arg-Gly-Gly-DL-boroPro (peptide)
Ki [2]: 22.9 nM
Selectivity, Ki (DPPIV)/Ki (APCE/FAP) [3]: 14.9
Ki [4]: 341 nM

Molecule: FG-peg-G-pyrrolidide (peptide)
Ki [1]: 703000 nM

Molecule: FR-peg-G-[r]fluoropyrrolidide (peptide)
Ki [1]: 53800 nM

Molecule: Ac-Arg-peg-D-Asp-L-boroPro (peptide)
Ki [2]: 1380 nM
Selectivity, Ki (DPPIV)/Ki (APCE/FAP) [3]: 5.2
Ki [4]: 7130 nM

B1: FR-peg-G-pipecolinyl-NQEQV (peptide)
peptide: FR[AEEA]G[Pip]NQEQV-OH
modifications: N-terminus assumed
SMILES: CC(C)[C@H](NC(=O)[C@H](CCC(N)=O)NC(=O)[C@H](CCC(=O)O)NC(=O)[C@H](CCC(N)=O)NC(=O)[C@H](CC(N)=O)NC(=O)[C@@H]1CCCCN1C(=O)CNC(=O)COCCOCCNC(=O)[C@H](CCCNC(=N)N)NC(=O)[C@@H](N)Cc1ccccc1)C(=O)O
Ki [1]: 14800 nM

B2: FR-peg-G-pipecolinyl-NQGQV (peptide)
peptide: FR[AEEA]G[Pip]NQGQV-OH
modifications: N-terminus assumed
SMILES: CC(C)[C@H](NC(=O)[C@H](CCC(N)=O)NC(=O)CNC(=O)[C@H](CCC(N)=O)NC(=O)[C@H](CC(N)=O)NC(=O)[C@@H]1CCCCN1C(=O)CNC(=O)COCCOCCNC(=O)[C@H](CCCNC(=N)N)NC(=O)[C@@H](N)Cc1ccccc1)C(=O)O
Ki [1]: 14500 nM

B3: FG-peg-G-pipecolinyl-NQEQV (peptide)
peptide: FG[AEEA]G[Pip]NQEQV-OH
modifications: N-terminus assumed
SMILES: CC(C)[C@H](NC(=O)[C@H](CCC(N)=O)NC(=O)[C@H](CCC(=O)O)NC(=O)[C@H](CCC(N)=O)NC(=O)[C@H](CC(N)=O)NC(=O)[C@@H]1CCCCN1C(=O)CNC(=O)COCCOCCNC(=O)CNC(=O)[C@@H](N)Cc1ccccc1)C(=O)O
Ki [1]: 57100 nM

The next lines start with the values.

Ki [2]: 5.7 nM
Selectivity, Ki (DPPIV)/Ki (APCE/FAP) [3]: 1080
Ki [4]: 6130 nM
Molecule: Ac-Arg-(8-amino-3,6-dioxaoctanoyl)-D-Ala-L-boroPro (peptide)

Ki [1]: 55300 nM
Molecule: FR-peg-G-[s]fluoropyrrolidide (peptide)

Ki [2]: 189 nM
Selectivity, Ki (DPPIV)/Ki (APCE/FAP) [3]: 108
Ki [4]: 20500 nM
Molecule: Ac-Arg-peg-D-Ala-D-boroPro (peptide)

Ki [2]: 2.7 nM
Selectivity, Ki (DPPIV)/Ki (APCE/FAP) [3]: 319
Ki [4]: 861 nM
Molecule: Ac-Arg-peg-Ser-Gly-L-boroPro (peptide)

Ki [2]: 3.1 nM
Selectivity, Ki (DPPIV)/Ki (APCE/FAP) [3]: 371
Ki [4]: 1150 nM
Molecule: Ac-Arg-peg-Gly-DL-boroPro (peptide)

Ki [2]: 7.7 nM
Molecule: Ac-Arg-peg-D-Ala-DL(25:75%)-boroPro (peptide)

Ki [2]: 9.5 nM
Selectivity, Ki (DPPIV)/Ki (APCE/FAP) [3]: 1180
Ki [4]: 11200 nM
Molecule: Ac-Arg-peg-D-Ala-DL(50:50%)-boroPro (peptide)

Ki [1]: 14000 nM
B4: FRQLTS-G pipecolinyl-NQEQV (peptide)
peptide: FRQLTSG[Pip]NQEQV-OH
modifications: N-terminus assumed
SMILES: CC(C)C[C@H](NC(=O)[C@H](CCC(N)=O)NC(=O)[C@H](CCCNC(=N)N)NC(=O)[C@@H](N)Cc1ccccc1)C(=O)N[C@H](C(=O)N[C@@H](CO)C(=O)NCC(=O)N1CCCC[C@H]1C(=O)N[C@@H](CC(N)=O)C(=O)N[C@@H](CCC(N)=O)C(=O)N[C@@H](CCC(=O)O)C(=O)N[C@@H](CCC(N)=O)C(=O)N[C@H](C(=O)O)C(C)C)[C@@H](C)O
